We go through one molecule from publication PMC3985343 (The Laryngoscope, 2013).

The target of this assay is Wildtype His6-Gαi1 (UniProt P63096 1-354). Description: SPR. (Surface plasmon resonance follows binding to a sensor surface in real time, without labels.)
Chain of Wildtype His6-Gαi1 (P63096 whole entry): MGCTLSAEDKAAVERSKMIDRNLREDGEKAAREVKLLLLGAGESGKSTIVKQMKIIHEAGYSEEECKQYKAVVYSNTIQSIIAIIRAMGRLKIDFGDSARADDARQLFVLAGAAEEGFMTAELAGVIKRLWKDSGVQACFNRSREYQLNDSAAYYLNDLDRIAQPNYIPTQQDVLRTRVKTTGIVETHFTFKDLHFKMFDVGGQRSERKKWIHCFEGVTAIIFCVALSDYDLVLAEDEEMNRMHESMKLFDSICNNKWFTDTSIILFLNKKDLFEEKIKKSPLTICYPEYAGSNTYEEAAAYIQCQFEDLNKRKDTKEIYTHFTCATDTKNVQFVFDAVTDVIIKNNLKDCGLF

B1: RGS21 (regulator of G protein signaling-21), wildtype, His6 tag cleaved (natural protein, human, UniProt Q2M5E4 1-152, looked up)
chain: MPVKCCFYRSPTAETMTWSENMDTLLANQAGLDAFRIFLKSEFSEENVEFWLACEDFKKTKNADKIASKAKMIYSEFIEADAPKEINIDFGTRDLISKNIAEPTLKCFDEAQKLIYCLMAKDSFPRFLKSEIYKKLVNSQQVPNHKKWLPFL
The term Kd denotes the free concentration of one partner at which half of the binding sites on the other are occupied at equilibrium, for simple one-to-one binding. Low readings indicate tighter binding, high ones weaker binding. As to B1, the dissociation constant Kd was found to be 57 nM.
